# Test results reported in patent publication US20090054323A1 (published 2009).
# Where no end group is shown, it is not given here.
# Target: T1, human Ang-2 (human, UniProt O15123 19-496, limits assumed)
# T1 construct: Sources differ by assay: R&D Systems 623-AN (mixture of 2 truncated versions) for initial screening; also called hAng-2; huAng-2
# T1 sequence (looked up): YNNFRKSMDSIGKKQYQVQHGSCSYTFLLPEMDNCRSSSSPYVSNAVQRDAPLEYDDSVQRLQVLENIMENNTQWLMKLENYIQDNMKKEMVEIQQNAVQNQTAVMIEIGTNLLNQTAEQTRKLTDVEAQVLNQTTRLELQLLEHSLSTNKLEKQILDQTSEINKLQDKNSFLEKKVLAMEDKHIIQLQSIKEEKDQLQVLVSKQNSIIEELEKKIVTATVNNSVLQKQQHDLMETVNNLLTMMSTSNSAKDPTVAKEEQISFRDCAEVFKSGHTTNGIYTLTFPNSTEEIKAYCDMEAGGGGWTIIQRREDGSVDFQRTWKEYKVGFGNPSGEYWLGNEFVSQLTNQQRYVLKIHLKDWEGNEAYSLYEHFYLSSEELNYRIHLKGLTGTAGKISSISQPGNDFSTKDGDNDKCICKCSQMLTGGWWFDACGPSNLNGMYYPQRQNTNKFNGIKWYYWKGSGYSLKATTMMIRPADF
# Assay: neutralization ELISA vs Tie-2-Fc
row,Binder,IC50 [nM]
1,C(methoxy‑poly(ethylene glycol)‑maleimide 5 kDa)GGGGGAQTNFMPMDDLEQRLYEQFILQQGLE [mPEG5K-(L1-7 Peptide)],11.7
2,"C(poly(ethylene glycol)‑bis‑maleimide 3.4 kDa)GGGGGAQTNFMPMDDLEQRLYEQFILQQGLE (also: two peptides joined through Cys1 by PEG-bis-maleimide 3.4 kDa, one on each end) [PEG3.4K(L1-7 Peptide)2]",0.058
3,"C(1,11‑bis‑maleimidotetraethyleneglycol)GGGGGAQTNFMPMDDLEQRLYEQFILQQGLE (also: two peptides joined through Cys1 by 1,11-bis-maleimidotetraethyleneglycol, one on each end) [PEO4(L1-7 Peptide)2]",0.064
4,CGGGGGAQTNFMPMDDLEQRLYEQFILQQGLE (Synthetic peptide with N-terminal Cys and 5Gly linker; also called L1-7(unPEGylated Peptide); L1-7 free peptide) [L1-7 Peptide],0.49

# Target: T1, human Ang-2
# Assay: phage display selection and phage ELISA on Ang-2
# Experimental: Three filamentous phage libraries, designated as “TN8-IX” (5×10⁹ independent transformants), “TN12-I” (1.4×10⁹ independent transformants), and “Linear” (2.3×10⁹ independent transformants) (all from Dyax Corp.), were used to select for Ang-2 binding phage. […] For all three libraries, the phage from the first round of selection were eluted only in a non-specific manner for further rounds of selection.
# An XL-1 Blue MRF′ culture was grown until OD₆₀₀ reached about 0.5. About thirty μl of this culture was aliquoted into each well of a 96-well microtiter plate. About 10 μl of eluted phage (section 4) was added to each well and allowed to infect bacteria for about 15 minutes at room temperature. About 100 μL of LB media containing approximately 12.5 μg/ml of tetracycline and approximately 50 μg/ml of ampicillin were added to each well. The microtiter plate was then incubated with shaking overnight at about 37° C. The recombinant Ang-2 protein (about 1 μg/ml in PBS) was allowed to bind to the 96 well Maxisorp plates (NUNC) overnight at about 4° C. As a control, the pure streptavidin was coated onto a separate Maxisorp plate at about 2 μg/ml in PBS.
# On the following day, liquid in the protein coated Maxisorp plates was discarded, and each well was blocked with about 300 μl of 5% milk solution at about 4° C. overnight (alternatively, 1 hour at room temperature). The milk solution was then discarded, and the wells were washed three times with the PBST solution. After the last washing step, about 50 μl of PBST-4% milk was added to each well of the protein coated Maxisorp plates.
row,Binder,binding result
1,KRPCEEIFGGCTYQ [TN8-Con1],binds
2,KRPCEEMWGGCNYD (Peptide from phage display selection on Ang-2) [TN8-8],binds
3,KFNPLDELEETLYEQFTFQQ (Peptide from phage display selection on Ang-2) [L1],binds
4,FDYCEGVEDPFTFGCDNH (Peptide from phage display selection on Ang-2) [TN12-9],binds
5,QEECEWDPWTCEHM [TN8-Con4],binds
6,QYGCDGFLYGCMIN (Peptide from phage display selection on Ang-2) [C17],binds
7,HQICKWDPWTCKHW (Peptide from phage display selection on Ang-2) [TN8-14],binds
